Results as given in publication PMC8405998, “Catalytic mechanism of ancestral L-lysine oxidase assigned by sequence data mining” (The Journal of Biological Chemistry, 2021).

Experiments:
[1] = system: N=C(N)NCCC[C@H](N)C(=O)O; assay: purified protein; settings: 100 mM Bis-Tris-HCl pH 7.0, O2 as co-substrate
[2] = target: T1, AncLLysO (synthetic construct, UniProt Z9DQU9YC40); assay: X-ray crystal structure, […]-2.[…] Å; format: binding; settings: substrate-free form; crystals at pH 7.5
T1 sequence (Z9DQU9YC40 1-589): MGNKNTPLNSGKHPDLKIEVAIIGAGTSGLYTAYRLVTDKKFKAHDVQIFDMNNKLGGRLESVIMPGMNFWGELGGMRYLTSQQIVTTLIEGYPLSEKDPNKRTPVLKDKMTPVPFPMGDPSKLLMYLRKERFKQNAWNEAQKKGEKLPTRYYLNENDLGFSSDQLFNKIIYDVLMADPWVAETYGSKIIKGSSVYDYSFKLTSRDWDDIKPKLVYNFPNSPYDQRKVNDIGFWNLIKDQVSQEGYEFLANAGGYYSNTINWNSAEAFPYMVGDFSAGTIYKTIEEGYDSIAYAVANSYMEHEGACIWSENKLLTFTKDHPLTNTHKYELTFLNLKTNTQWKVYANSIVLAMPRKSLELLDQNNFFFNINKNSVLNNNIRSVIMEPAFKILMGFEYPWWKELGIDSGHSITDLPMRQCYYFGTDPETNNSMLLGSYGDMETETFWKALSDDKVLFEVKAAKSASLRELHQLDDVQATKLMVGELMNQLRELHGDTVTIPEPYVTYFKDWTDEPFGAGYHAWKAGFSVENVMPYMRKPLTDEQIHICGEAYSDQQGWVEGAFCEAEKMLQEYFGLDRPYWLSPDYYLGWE

[3] = substrate: NCCC[C@H](N)C(=O)O; assay: purified protein; settings: 100 mM Bis-Tris-HCl pH 7.0, O2 as co-substrate
[4] = substrate: NCCCC[C@H](N)C(=O)O; assay: purified protein; settings: 100 mM Bis-Tris-HCl pH 7.0, O2 as co-substrate
[5] = substrate: N=C(N)NCCC[C@H](N)C(=O)O; assay: purified protein; settings: 100 mM Bis-Tris-HCl pH 7.0, O2 as co-substrate; remark: listed apart in the source

With AncLLysO (synthetic construct) the Km [1] was 6900 ± 1100 µM, the kcat [1] was 11.4 ± 1 s⁻¹ and the kcat/Km [1] was 1700 M⁻¹ s⁻¹.

`Cc1cc2nc3c(=O)[nH]c(=O)nc-3n(C[C@H](O)[C@H](O)[C@H](O)COP(=O)(O)OP(=O)(O)OC[C@H]3O[C@@H](n4cnc5c(N)ncnc54)[C@H](O)[C@@H]3O)c2cc1C` [FAD] was tested, and the “X-ray crystal structure, 2.2-2.4 Å” value [2] was “the Rossmann-core fold, which recognizes FAD”.

B1: CaLLysO (Chryseobacterium angstadtii) (protein)
chain: MNKNTPLNTGKQPDLKTEVAIIGAGTSGLYTAYRLVTDKKYTASEVQIFDMNDKLGGRLESVIMPGMNFWGELGGMRYLTSQEIVTTLIEGYPLSETDPAKRIPVLKDKMTPVPFPMGDPSKLLMYLRKDRCKQDAWTVAQGEGEKLPTRYYLNDDDFGFSSDQLFNKVIYDVLMADAWVAETYGKKIIKGSSIYDYSFELTSRDWDDIKPKLVYNFPNSPYDQRKVNDLGFWNLLKDQVSQEGYEFLANAGGYYSNTINWNAAEAFPYMVGDFSAGTIYKTIEEGYDSIAYAVANSYMEHEGACIWSKNKLLTFTKDHDLKSTYKYRLTFLNLETNTQWNVYANTLVLAMPRKSLELLDQDNFFFNINENSVLNENIRSVIMEPAFKILMGFPYPWWKELGIDSGHSITDLPMRQCYYFGTDPQTNNSMLLGSYGDMETETFWKALSDDKILFEVKAAKSASLKELHELDDVQATRMMVDELMNQLRELHGEEITIPEPYVTYFKDWTDEPFGAGYHAWKAGFSVENVMPYMRKPVADEQIHIVGEAYSDQQGWVEGAFCEAEKMLQEYFGLNRPIWLNPDYYLGW
Work on B1 yielded a Km [3] of 4400 ± 400 µM, a kcat [3] of 3.6 s⁻¹ and a kcat/Km [3] of 810 M⁻¹ s⁻¹. The Km [4] was 27 ± 3 µM, the Km [5] was 340 ± 30 µM and the kcat [5] was 11.4 ± 0.1 s⁻¹. For the same molecule, the kcat/Km [5] was 33200 M⁻¹ s⁻¹.
